Biological target: Flag-tagged chicken p53 (chicken) (UniProt P10360)
Chain of UniProt P10360 (P10360 whole entry): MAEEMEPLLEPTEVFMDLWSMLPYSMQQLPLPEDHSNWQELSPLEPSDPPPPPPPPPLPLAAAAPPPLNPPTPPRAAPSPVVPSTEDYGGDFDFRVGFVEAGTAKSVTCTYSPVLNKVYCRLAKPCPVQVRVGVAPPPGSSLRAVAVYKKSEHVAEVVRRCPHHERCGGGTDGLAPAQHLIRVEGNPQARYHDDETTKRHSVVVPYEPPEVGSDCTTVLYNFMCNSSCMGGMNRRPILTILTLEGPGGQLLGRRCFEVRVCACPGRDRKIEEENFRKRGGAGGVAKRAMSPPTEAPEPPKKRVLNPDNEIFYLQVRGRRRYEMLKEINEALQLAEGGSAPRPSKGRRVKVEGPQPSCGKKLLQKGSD

In the case of GFP-tagged Meq (natural protein), the p53-mediated apoptosis (TUNEL assay, percent of apoptotic cells) in CEFs co-transfected with Flag-p53 and Flag-Meq at 1:10 molar ratio; approximately 46% with Flag-p53 alone is reported as 12 % of cells.
